The values that follow come from the supplement of paper PMC5998384.

For data set [1], the system named is HeLa Kyoto. Briefly: solubility in G1/S (NP-40 vs SDS abundance) (log2 ratio); higher = more soluble. Particulars: cell cycle stage: G1/S.
The subject of data set [2] is HeLa Kyoto. Kind of data set: melting temperature (median over replicates), in situ; higher = more thermally stable.
Data set [3] deals with HeLa Kyoto. Kind of data set: thermal stability score vs G1/S (z-score of summed log2 fold changes over temperatures); higher = more thermally stable than in G1/S.
Data set [4] has as its system HeLa Kyoto. Briefly: solubility change mitosis vs G1/S (difference of NP-40 vs SDS log2 ratios) (log2 ratio difference); higher = more soluble in mitosis.
Setting [5] is: cell cycle stage: early G1 (4.5 h after nocodazole release).
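Throughout, for melting temperature (median over replicates), in situ: HeLa Kyoto cells synchronized by double thymidine or nocodazole block, proteins quantified by TMT10plex mass spectrometry, three independent biological replicates.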
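Throughout, for solubility change mitosis vs G1/S (difference of NP-40 vs SDS log2 ratios): synchronized HeLa Kyoto cells (double thymidine block for G1/S, nocodazole release for mitosis), protein amounts in NP-40 versus SDS lysates quantified by mass spectrometry, three biological replicates.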
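Throughout, for solubility in G1/S (NP-40 vs SDS abundance): HeLa Kyoto cells arrested at G1/S by double thymidine block, proteins quantified by TMT10plex mass spectrometry in mild NP-40 versus SDS extracts, three biological replicates.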
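Throughout, for thermal stability score vs G1/S (z-score of summed log2 fold changes over temperatures): synchronized HeLa Kyoto cells, proteins quantified by TMT10plex mass spectrometry, three biological replicates, mitosis taken 0.5 h after nocodazole release, G1/S directly after double thymidine block.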

Sequence of FXR1 (chain, as listed by the source): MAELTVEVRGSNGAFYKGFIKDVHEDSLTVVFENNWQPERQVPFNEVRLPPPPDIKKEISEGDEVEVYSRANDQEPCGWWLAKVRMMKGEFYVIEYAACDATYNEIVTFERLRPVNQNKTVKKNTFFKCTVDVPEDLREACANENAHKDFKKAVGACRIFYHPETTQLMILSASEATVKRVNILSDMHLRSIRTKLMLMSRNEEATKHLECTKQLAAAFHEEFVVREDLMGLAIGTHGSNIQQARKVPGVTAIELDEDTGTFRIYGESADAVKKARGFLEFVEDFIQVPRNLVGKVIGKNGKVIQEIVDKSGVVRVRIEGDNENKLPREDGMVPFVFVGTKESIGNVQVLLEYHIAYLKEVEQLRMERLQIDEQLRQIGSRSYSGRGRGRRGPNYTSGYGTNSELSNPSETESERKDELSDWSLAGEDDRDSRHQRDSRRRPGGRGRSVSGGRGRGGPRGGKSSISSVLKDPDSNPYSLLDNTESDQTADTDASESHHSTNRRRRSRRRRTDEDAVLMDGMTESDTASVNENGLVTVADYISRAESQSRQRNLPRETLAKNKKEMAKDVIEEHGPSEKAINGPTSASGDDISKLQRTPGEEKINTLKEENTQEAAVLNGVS

In the case of “MSKYKLIMLRHGEGAWNKENRFCSWVDQKLNSEGMEEARNCGKQLKALNFEFDLVFTSVLNRSIHTAWLILEELGQEWVPVESSWRLNERHYGALIGLNREQMALNHGEEQVRLWRRSYNVTPPPIEESHPYYQEIYNDRRYKVCDVPLDQLPRSESLKDVLERLLPYWNERIAPEVLRGKTILISAHGNSSRALLKHLEGISDEDIINITLPTGVPILLELDENLRAVGPHQFLGDQEAIQAAIKKVEDQGKVKQAKK [BPGM]”, the “solubility in G1/S (log2)” value with HeLa Kyoto [1] was 0.328. The melting temperature was determined as 53.1 °C in the data set on HeLa Kyoto [2] (cell cycle stage: G1/S) and 55.1 °C in the data set with HeLa Kyoto [2] (cell cycle stage: mitosis). In addition, the thermal stability score in the data set on HeLa Kyoto [3] (setting [5]) was 1.51; in the data set with HeLa Kyoto [3] (cell cycle stage: mitosis) it was 0.348. In addition, the “solubility change mitosis (log2)” value in the data set with HeLa Kyoto [4] is -0.0036.
“MSLKLQASNVTNKNDPKSINSRVFIGNLNTALVKKSDVETIFSKYGRVAGCSVHKGYAFVQYSNERHARAAVLGENGRVLAGQTLDINMAGEPKPDRPKGLKRAASAIYSGYIFDYDYYRDDFYDRLFDYRGRLSPVPVPRAVPVKRPRVTVPLVRRVKTNVPVKLFARSTAVTTSSAKIKLKSSELQAIKTELTQIKSNIDALLSRLEQIAAEQKANPDGKKKGDGGGAGGGGGGGGSGGGGSGGGGGGGSSRPPAPQENTTSEAGLPQGEARTRDDGDEEGLLTHSEEELEHSQDTDADDGALQ [RALY]”: the “solubility in G1/S (log2)” value in the data set on HeLa Kyoto [1] was determined as 0.116. Also, the values for the melting temperature in the data set on HeLa Kyoto [2] (cell cycle stage: G1/S) and in the data set on HeLa Kyoto [2] (cell cycle stage: mitosis) were 47.1 °C and 49.4 °C, respectively. The thermal stability score was 2.9 in the data set on HeLa Kyoto [3] (setting [5]) and 8.45 with HeLa Kyoto [3] (cell cycle stage: mitosis). In addition, in the data set with HeLa Kyoto [4], the “solubility change mitosis (log2)” value is 0.275.
On to “MPLVKRNIDPRHLCHTALPRGIKNELECVTNISLANIIRQLSSLSKYAEDIFGELFNEAHSFSFRVNSLQERVDRLSVSVTQLDPKEEELSLQDITMRKAFRSSTIQDQQLFDRKTLPIPLQETYDVCEQPPPLNILTPYRDDGKEGLKFYTNPSYFFDLWKEKMLQDTEDKRKEKRKQKQKNLDRPHEPEKVPRAPHDRRREWQKLAQGPELAEDDANLLHKHIEVANGPASHFETRPQTYVDHMDGSYSLSALPFSQMSELLTRAEERVLVRPHEPPPPPPMHGAGDAKPIPTCISSATGLIENRPQSPATGRTPVFVSPTPPPPPPPLPSALSTSSLRASMTSTPPPPVPPPPPPPATALQAPAVPPPPAPLQIAPGVLHPAPPPIAPPLVQPSPPVARAAPVCETVPVHPLPQGEVQGLPPPPPPPPLPPPGIRPSSPVTVTALAHPPSGLHPTPSTAPGPHVPLMPPSPPSQVIPASEPKRHPSTLPVISDARSVLLEAIRKGIQLRKVEEQREQEAKHERIENDVATILSRRIAVEYSDSEDDSEFDEVDWLE [WASF1]”, for which the “solubility in G1/S (log2)” value in the data set on HeLa Kyoto [1] worked out at 0.124. Further, the figures for the melting temperature in the data set with HeLa Kyoto [2] (cell cycle stage: G1/S) and with HeLa Kyoto [2] (cell cycle stage: mitosis) were 51.5 °C and 52 °C, respectively. In addition, the thermal stability score with HeLa Kyoto [3] (setting [5]) is -0.0852; with HeLa Kyoto [3] (cell cycle stage: mitosis), 0.459. The “solubility change mitosis (log2)” value with HeLa Kyoto [4] turned out to be 0.025.
In the case of “MSDLRITEAFLYMDYLCFRALCCKGPPPARPEYDLVCIGLTGSGKTSLLSKLCSESPDNVVSTTGFSIKAVPFQNAILNVKELGGADNIRKYWSRYYQGSQGVIFVLDSASSEDDLEAARNELHSALQHPQLCTLPFLILANHQDKPAARSVQEIKKYFELEPLARGKRWILQPCSLDDMDALKDSFSQLINLLEEKDHEAVRM [ARL15]”, the “solubility in G1/S (log2)” value with HeLa Kyoto [1] was 0.118. Further, the melting temperature with HeLa Kyoto [2] (cell cycle stage: mitosis) was 53.2 °C. Moreover, the thermal stability score in the data set with HeLa Kyoto [3] (setting [5]) is -0.792; with HeLa Kyoto [3] (cell cycle stage: mitosis), 0.438. Moreover, the “solubility change mitosis (log2)” value in the data set with HeLa Kyoto [4] is -0.114.
On to “MEGSEPVAAHQGEEASCSSWGTGSTNKNLPIMSTASVEIDDALYSRQRYVLGDTAMQKMAKSHVFLSGMGGLGLEIAKNLVLAGIKAVTIHDTEKCQAWDLGTNFFLSEDDVVNKRNRAEAVLKHIAELNPYVHVTSSSVPFNETTDLSFLDKYQCVVLTEMKLPLQKKINDFCRSQCPPIKFISADVHGIWSRLFCDFGDEFEVLDTTGEEPKEIFISNITQANPGIVTCLENHPHKLETGQFLTFREINGMTGLNGSIQQITVISPFSFSIGDTTELEPYLHGGIAVQVKTPKTVFFESLERQLKHPKCLIVDFSNPEAPLEIHTAMLALDQFQEKYSRKPNVGCQQDSEELLKLATSISETLEEKPDVNADIVHWLSWTAQGFLSPLAAAVGGVASQEVLKAVTGKFSPLCQWLYLEAADIVESLGKPECEEFLPRGDRYDALRACIGDTLCQKLQNLNIFLVGCGAIGCEMLKNFALLGVGTSKEKGMITVTDPDLIEKSNLNRQFLFRPHHIQKPKSYTAADATLKINSQIKIDAHLNKVCPTTETIYNDEFYTKQDVIITALDNVEARRYVDSRCLANLRPLLDSGTMGTKGHTEVIVPHLTESYNSHRDPPEEEIPFCTLKSFPAAIEHTIQWARDKFESSFSHKPSLFNKFWQTYSSAEEVLQKIQSGHSLEGCFQVIKLLSRRPRNWSQCVELARLKFEKYFNHKALQLLHCFPLDIRLKDGSLFWQSPKRPPSPIKFDLNEPLHLSFLQNAAKLYATVYCIPFAEEDLSADALLNILSEVKIQEFKPSNKVVQTDETARKPDHVPISSEDERNAIFQLEKAILSNEATKSDLQMAVLSFEKDDDHNGHIDFITAASNLRAKMYSIEPADRFKTKRIAGKIIPAIATTTATVSGLVALEMIKVTGGYPFEAYKNCFLNLAIPIVVFTETTEVRKTKIRNGISFTIWDRWTVHGKEDFTLLDFINAVKEKYGIEPTMVVQGVKMLYVPVMPGHAKRLKLTMHKLVKPTTEKKYVDLTVSFAPDIDGDEDLPGPPVRYYFSHDTD [UBA6]”, for which the “solubility in G1/S (log2)” value with HeLa Kyoto [1] is 0.00865. The results for the melting temperature in the data set on HeLa Kyoto [2] (cell cycle stage: G1/S) and with HeLa Kyoto [2] (cell cycle stage: mitosis) were 50.7 °C and 49.8 °C, respectively. Moreover, the thermal stability score in the data set on HeLa Kyoto [3] (setting [5]) was -0.786; with HeLa Kyoto [3] (cell cycle stage: mitosis) it was -0.409. Moreover, the “solubility change mitosis (log2)” value with HeLa Kyoto [4] was -0.192.
On to “MADIIARLREDGIQKRVIQEGRGELPDFQDGTKATFHYRTLHSDDEGTVLDDSRARGKPMELIIGKKFKLPVWETIVCTMREGEIAQFLCDIKHVVLYPLVAKSLRNIAVGKDPLEGQRHCCGVAQMREHSSLGHADLDALQQNPQPLIFHMEMLKVESPGTYQQDPWAMTDEEKAKAVPLIHQEGNRLYREGHVKEAAAKYYDAIACLKNLQMKEQPGSPEWIQLDQQITPLLLNYCQCKLVVEEYYEVLDHCSSILNKYDDNVKAYFKRGKAHAAVWNAQEAQADFAKVLELDPALAPVVSRELRALEARIRQKDEEDKARFRGIFSH [AIP]”, for which, in the data set on HeLa Kyoto [1], the “solubility in G1/S (log2)” value was 0.556. Moreover, the melting temperature in the data set with HeLa Kyoto [2] (cell cycle stage: G1/S) is 49.3 °C; in the data set with HeLa Kyoto [2] (cell cycle stage: mitosis), 50.3 °C. The figures for the thermal stability score in the data set with HeLa Kyoto [3] (setting [5]) and in the data set on HeLa Kyoto [3] (cell cycle stage: mitosis) were 1.14 and 1.52, respectively. In the data set on HeLa Kyoto [4], the “solubility change mitosis (log2)” value was -0.0524.
As to FXR1, the “solubility in G1/S (log2)” value in the data set on HeLa Kyoto [1] was -0.859. The melting temperature was 50.3 °C in the data set on HeLa Kyoto [2] (cell cycle stage: G1/S) and 50.8 °C with HeLa Kyoto [2] (cell cycle stage: mitosis). Moreover, the thermal stability score with HeLa Kyoto [3] (setting [5]) was -2.47; with HeLa Kyoto [3] (cell cycle stage: mitosis) it was 2.23. In addition, in the data set on HeLa Kyoto [4], the “solubility change mitosis (log2)” value was determined as 0.215.
